First the molecules themselves.
B1: Cyclin-dependent kinase inhibitor 2A (Homo sapiens), P42771 (parent)
chain: MEPAAGSSMEPSADWLATAAARGRVEEVRALLEAGALPNAPNSYGRRPIQVMMMGSARVAELLLLHGAEPNCADPATLTRPVHDAAREGFLDTLVVLHRAGARLDVRDAWGRLPVDLAEELGHRDVARYLRAAAGGTRGSNHARIDAAEGPSDIPD
B2: NF-kappa-B inhibitor alpha (Gallus gallus (Chicken)), Q91974 (parent)
chain: MLSAHRPAEPPAVEGCEPPRKERQGGLLPPDDRHDSGLDSMKEEEYRQLVRELEDIRLQPREPPARPHAWAQQLTEDGDTFLHLAIIHEEKALSLEVIRQAAGDAAFLNFQNNLSQTPLHLAVITDQAEIAEHLLKAGCDLDVRDFRGNTPLHIACQQGSLRSVSVLTQHCQPHHLLAVLQATNYNGHTCLHLASIQGYLAVVEYLLSLGADVNAQEPCNGRTALHLAVDLQNSDLVSLLVKHGPDVNKVTYQGYSPYQLTWGRDNASIQEQLKLLTTADLQILPESEDEESSESEPEFTEDELMYDDCCIGGRQLTF
B3: Ankyrin repeat domain-containing protein 49 (Homo sapiens), Q8WVL7 (parent)
chain: MEKEKGNDDGIPDQENSLDFSEHFNQLELLETHGHLIPTGTQSLWVGNSDEDEEQDDKNEEWYRLQEKKMEKDPSRLLLWAAEKNRLTTVRRLLSEKATHVNTRDEDEYTPLHRAAYSGHLDIVQELIAQGADVHAVTVDGWTPLHSACKWNNTRVASFLLQHDADINAQTKGLLTPLHLAAGNRDSKDTLELLLMNRYVKPGLKNNLEETAFDIARRTSIYHYLFEIVEGCTNSSPQS

Variants of B1 are the subject of one experiment. The following applies: with ran_human RAN.
On to M53I, for which the “effect of a mutation on the interaction” value is on record as “disrupting interaction strength”.
For the variant R87P, the “effect of a mutation on the interaction” value is listed as “disrupting interaction strength”.

Variants of B1 are the subject of another experiment. The following applies: with cdk4_human CDK4, P11802.
cdk4_human CDK4, P11802, sequence (P11802 whole entry): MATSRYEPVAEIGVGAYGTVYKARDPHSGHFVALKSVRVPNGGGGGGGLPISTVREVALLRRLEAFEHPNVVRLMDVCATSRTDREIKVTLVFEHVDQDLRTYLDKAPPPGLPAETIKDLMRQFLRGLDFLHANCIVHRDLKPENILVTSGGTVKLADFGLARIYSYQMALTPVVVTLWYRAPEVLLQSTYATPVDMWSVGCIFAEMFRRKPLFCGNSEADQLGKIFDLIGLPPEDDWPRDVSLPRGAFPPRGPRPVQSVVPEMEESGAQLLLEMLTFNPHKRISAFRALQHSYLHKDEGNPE
Turning to M53I, the “effect of a mutation on the interaction” value was “increasing interaction strength”.
Turning to R87P, the “effect of a mutation on the interaction” value is “increasing interaction strength”.

In a further experiment the parent is B1. Conditions: with ccnd1_human CCND1, P24385.
ccnd1_human CCND1, P24385, sequence (P24385 whole entry): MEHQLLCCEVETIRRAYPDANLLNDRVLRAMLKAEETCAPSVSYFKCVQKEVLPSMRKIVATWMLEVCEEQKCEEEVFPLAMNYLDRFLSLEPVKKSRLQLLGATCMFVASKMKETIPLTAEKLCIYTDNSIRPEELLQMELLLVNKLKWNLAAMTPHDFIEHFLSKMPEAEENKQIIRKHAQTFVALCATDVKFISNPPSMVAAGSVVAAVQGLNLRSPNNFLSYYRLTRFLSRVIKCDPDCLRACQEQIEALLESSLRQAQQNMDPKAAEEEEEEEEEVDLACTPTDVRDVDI
Consider M53I, for which the “effect of a mutation on the interaction” value is “increasing interaction strength”.
For the variant R87P, the “effect of a mutation on the interaction” value is on record as “disrupting interaction strength”.

Variants of B1 are the subject of the next experiment. The following applies: with cdk6_human CDK6, Q00534.
cdk6_human CDK6, Q00534, sequence (Q00534 whole entry): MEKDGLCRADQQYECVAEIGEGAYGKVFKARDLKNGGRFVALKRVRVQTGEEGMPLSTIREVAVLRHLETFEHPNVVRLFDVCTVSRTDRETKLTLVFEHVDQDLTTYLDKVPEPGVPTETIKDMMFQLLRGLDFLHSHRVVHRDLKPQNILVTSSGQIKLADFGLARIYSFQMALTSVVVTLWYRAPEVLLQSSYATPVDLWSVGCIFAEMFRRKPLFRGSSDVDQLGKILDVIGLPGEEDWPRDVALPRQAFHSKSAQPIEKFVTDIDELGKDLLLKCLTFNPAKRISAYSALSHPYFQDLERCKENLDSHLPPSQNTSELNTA
For M53I, the “effect of a mutation on the interaction” value is given as “increasing interaction strength”.
Consider R87P, for which the “effect of a mutation on the interaction” value is recorded as “increasing interaction strength”.

In the next experiment the parent is B1. The following applies: with ran_human RAN. This is another data set of the same source.
Take M53I: the “effect of a mutation on the interaction” value is given as “increasing interaction strength”.
Take R87P: the “effect of a mutation on the interaction” value is listed as “increasing interaction strength”.

A further experiment covers variants of B1. The following applies: with cdk4_human CDK4, P11802. The source holds these as a separate data set.
R87P: the “effect of a mutation on the interaction” value is reported as “decreasing interaction strength”.

In a further experiment the parent is B1. Conditions: with cdk6_human CDK6, Q00534. This is another data set of the same source.
R87P: the “effect of a mutation on the interaction” value was “decreasing interaction strength”.

The variants in another experiment derive from B2. The following applies: with ran_human RAN.
As for MLSAHRPAEPPAVEGCEPPRKERQGGLLPPDDRHDSGLDSMKEEEYRQLVRELEDIRLQPREPPARPHAWAQQLTEDGDTFLHLAIIHEEKALSLEVIRQAAGDAAFLNFQNNLSQTPLHLAVKTDQAEIAEHLLKAGCDLDVRDFRGNTPLHIACQQGSLRSVSVLTQHCQPHHLLAVLQATNYNGHTCLHLASIQGYLAVVEYLLSLGADVNAQEPCNGRTALHLAVDLQNSDLVSLLVKHGPDVNKVTYQGYSPYQLTWGRDNASIQEQLKLLTTADLQILPESEDEESSESEPEFTEDELMYDDCCIGGRQLTF [I124K], the “effect of a mutation on the interaction” value was “decreasing interaction strength”.
Take MLSAHRPAEPPAVEGCEPPRKERQGGLLPPDDRHDSGLDSMKEEEYRQLVRELEDIRLQPREPPARPHAWAQQLTEDGDTFLHLAIIHEEKALSLEVIRQAAGDAAFLNFQNNLSQTPLHLAVATDQAEIAEHLLKAGCDLDVRDFRGNTPLHIACQQGSLRSVSVLTQHCQPHHLLAVLQATNYNGHTCLHLASIQGYLAVVEYLLSLGADVNAQEPCNGRTALHLAVDLQNSDLVSLLVKHGPDVNKVTYQGYSPYQLTWGRDNASIQEQLKLLTTADLQILPESEDEESSESEPEFTEDELMYDDCCIGGRQLTF [I124A]: the “effect of a mutation on the interaction” value is “decreasing interaction strength”.
MLSAHRPAEPPAVEGCEPPRKERQGGLLPPDDRHDSGLDSMKEEEYRQLVRELEDIRLQPREPPARPHAWAQQLTEDGDTFLHLAIIHEEKALSLEVIRQAAGDAAFLNFQNNLSQTPLHLAVETDQAEIAEHLLKAGCDLDVRDFRGNTPLHIACQQGSLRSVSVLTQHCQPHHLLAVLQATNYNGHTCLHLASIQGYLAVVEYLLSLGADVNAQEPCNGRTALHLAVDLQNSDLVSLLVKHGPDVNKVTYQGYSPYQLTWGRDNASIQEQLKLLTTADLQILPESEDEESSESEPEFTEDELMYDDCCIGGRQLTF [I124E]: the “effect of a mutation on the interaction” value is reported as “decreasing interaction strength”.
For the variant MLSAHRPAEPPAVEGCEPPRKERQGGLLPPDDRHDSGLDSMKEEEYRQLVRELEDIRLQPREPPARPHAWAQQLTEDGDTFLHLAIIHEEKALSLEVIRQAAGDAAFLNFQNNLSQTPLHLAVQTDQAEIAEHLLKAGCDLDVRDFRGNTPLHIACQQGSLRSVSVLTQHCQPHHLLAVLQATNYNGHTCLHLASIQGYLAVVEYLLSLGADVNAQEPCNGRTALHLAVDLQNSDLVSLLVKHGPDVNKVTYQGYSPYQLTWGRDNASIQEQLKLLTTADLQILPESEDEESSESEPEFTEDELMYDDCCIGGRQLTF [I124Q], the “effect of a mutation on the interaction” value is “decreasing interaction strength”.
On the same count and under the same terms, the same measure for MLSAHRPAEPPAVEGCEPPRKERQGGLLPPDDRHDSGLDSMKEEEYRQLVRELEDIRLQPREPPARPHAWAQQLTEDGDTFLHLAIIHEEKALSLEVIRQAAGDAAFLNFQNNLSQTPLHLAVRTDQAEIAEHLLKAGCDLDVRDFRGNTPLHIACQQGSLRSVSVLTQHCQPHHLLAVLQATNYNGHTCLHLASIQGYLAVVEYLLSLGADVNAQEPCNGRTALHLAVDLQNSDLVSLLVKHGPDVNKVTYQGYSPYQLTWGRDNASIQEQLKLLTTADLQILPESEDEESSESEPEFTEDELMYDDCCIGGRQLTF [I124R]: “decreasing interaction strength”.

The variants in a further experiment derive from B3. Conditions: with ran_human RAN.
For MEKEKGNDDGIPDQENSLDFSEHFNQLELLETHGHLIPTGTQSLWVGNSDEDEEQDDKNEEWYRLQEKKMEKDPSRLLLWAAEKNRLTTVRRLLSEKATHVNTRDEDEYTPLHRAAYSGHLDIVQELIAQGADVHAVTVDGWTPLHSACKWNNTRVASFLLQHDADINAQTKGLLTPLHLAACNRDSKDTLELLLMNRYVKPGLKNNLEETAFDIARRTSIYHYLFEIVEGCTNSSPQS [G183C], the “effect of a mutation on the interaction” value is listed as “increasing interaction strength”.
In the case of MEKEKGNDDGIPDQENSLDFSEHFNQLELLETHGHLIPTGTQSLWVGNSDEDEEQDDKNEEWYRLQEKKMEKDPSRLLLWAAEKNRLTTVRRLLSEKATHVNTRDEDEYTPLHRAAYSGHLDIVQELIAQGADVHAVTVDGWTPLHSACIWNNTRVASFLLQHDADINAQTKGLLTPLHLAAGNRDSKDTLELLLMNRYVKPGLKNNLEETAFDIARRTSIYHYLFEIVEGCTNSSPQS [K150I], the “effect of a mutation on the interaction” value is “increasing interaction strength”.
For the variant MEKEKGNDDGIPDQENSLDFSEHFNQLELLETHGHLIPTGTQSLWVGNSDEDEEQDDKNEEWYRLQEKKMEKDPSRLLLWAAEKNRLTTVRRLLSEKATHVNTRDECEYTPLHRAAYSGHLDIVQELIAQGADVHAVTVDGWTPLHSACCWNNTRVASFLLQHDADINAQTKGLLTPLHLAACNRDSKDTLELLLMNRYVKPGLKNNLEETAFDIARRTSIYHYLFEIVEGCTNSSPQS [D107C;K150C;G183C], the “effect of a mutation on the interaction” value is given as “increasing interaction strength”.
In the case of MEKEKGNDDGIPDQENSLDFSEHFNQLELLETHGHLIPTGTQSLWVGNSDEDEEQDDKNEEWYRLQEKKMEKDPSRLLLWAAEKNRLTTVRRLLSEKATHVNTRDEIEYTPLHRAAYSGHLDIVQELIAQGADVHAVTVDGWTPLHSACIWNNTRVASFLLQHDADINAQTKGLLTPLHLAAGNRDSKDTLELLLMNRYVKPGLKNNLEETAFDIARRTSIYHYLFEIVEGCTNSSPQS [D107I;K150I], the “effect of a mutation on the interaction” value is listed as “increasing interaction strength”.
Turning to MEKEKGNDDGIPDQENSLDFSEHFNQLELLETHGHLIPTGTQSLWVGNSDEDEEQDDKNEEWYRLQEKKMEKDPSRLLLWAAEKNRLTTVRRLLSEKATHVNTRDECEYTPLHRAAYSGHLDIVQELIAQGADVHAVTVDGWTPLHSACCWNNTRVASFLLQHDADINAQTKGLLTPLHLAAGNRDSKDTLELLLMNRYVKPGLKNNLEETAFDIARRTSIYHYLFEIVEGCTNSSPQS [D107C;K150C], the “effect of a mutation on the interaction” value is given as “increasing interaction strength”.

Values taken from IntAct's records for PubMed 24855949.
